Results from doi:10.1101/2023.11.14.566657 (bioRxiv, 2023).
Changes are numbered by the printed parent chain.

Tests used:
mass photometry = target: the molecule itself; assay: mass photometry
SMARCAL1 = target: T1, SMARCAL1 (UniProt Q9NZC9 1-954); assay: mass photometry
T1 sequence: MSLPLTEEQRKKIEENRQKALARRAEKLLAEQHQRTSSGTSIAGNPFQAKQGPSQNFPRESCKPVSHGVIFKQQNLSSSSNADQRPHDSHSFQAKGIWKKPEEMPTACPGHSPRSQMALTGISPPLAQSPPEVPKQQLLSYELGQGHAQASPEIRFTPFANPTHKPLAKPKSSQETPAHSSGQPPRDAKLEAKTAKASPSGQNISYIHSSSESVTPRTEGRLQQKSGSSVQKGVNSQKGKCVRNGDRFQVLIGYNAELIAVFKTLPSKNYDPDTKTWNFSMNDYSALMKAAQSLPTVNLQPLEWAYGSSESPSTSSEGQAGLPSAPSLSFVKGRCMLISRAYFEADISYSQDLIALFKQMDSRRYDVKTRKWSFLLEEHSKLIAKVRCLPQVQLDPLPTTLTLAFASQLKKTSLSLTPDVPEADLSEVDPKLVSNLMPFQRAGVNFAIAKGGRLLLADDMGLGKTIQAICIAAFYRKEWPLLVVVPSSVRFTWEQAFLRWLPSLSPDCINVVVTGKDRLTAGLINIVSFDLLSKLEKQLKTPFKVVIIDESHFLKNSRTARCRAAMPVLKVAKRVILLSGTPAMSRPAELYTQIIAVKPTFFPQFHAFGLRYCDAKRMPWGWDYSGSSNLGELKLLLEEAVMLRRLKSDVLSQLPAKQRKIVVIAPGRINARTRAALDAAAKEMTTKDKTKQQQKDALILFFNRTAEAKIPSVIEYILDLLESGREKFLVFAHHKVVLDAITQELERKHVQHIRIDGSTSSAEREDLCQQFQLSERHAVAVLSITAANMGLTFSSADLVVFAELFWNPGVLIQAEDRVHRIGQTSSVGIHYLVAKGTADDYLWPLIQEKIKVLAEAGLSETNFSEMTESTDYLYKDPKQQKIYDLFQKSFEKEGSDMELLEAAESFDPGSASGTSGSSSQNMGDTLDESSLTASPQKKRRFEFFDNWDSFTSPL

RAD52 IBD = target: T2, RAD52 IBD (human, UniProt P43351 1-418, K152A;R153A); assay: mass photometry
T2 sequence: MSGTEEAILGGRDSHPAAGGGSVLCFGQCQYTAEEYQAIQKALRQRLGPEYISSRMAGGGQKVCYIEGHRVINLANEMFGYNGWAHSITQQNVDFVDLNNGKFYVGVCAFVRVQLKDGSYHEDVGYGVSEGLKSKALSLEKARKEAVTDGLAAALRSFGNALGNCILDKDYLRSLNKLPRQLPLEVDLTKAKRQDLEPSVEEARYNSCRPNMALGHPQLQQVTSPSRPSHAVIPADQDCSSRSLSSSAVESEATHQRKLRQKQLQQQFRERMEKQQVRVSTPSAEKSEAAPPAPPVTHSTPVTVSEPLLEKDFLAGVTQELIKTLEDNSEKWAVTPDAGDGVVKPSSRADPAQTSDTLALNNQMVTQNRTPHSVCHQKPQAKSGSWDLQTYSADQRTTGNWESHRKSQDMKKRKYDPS

RAD52 wild type;SMARCAL1 = target: T3, RAD52 wild type;SMARCAL1 (human;human?, UniProt P43351;Q9NZC9 1-418;1-954, |); assay: mass photometry
T3 sequence 1: T2 sequence with A152K, A153R
T3 sequence 2: T1 sequence

RAD52 wild type [1] = target: T4, RAD52 wild type (human, UniProt P43351 1-418); assay: mass photometry
T4 sequence: T2 sequence with A152K, A153R

RPA = RPA (UniProt P27694;P15927;P35244 1-616;1-270;1-121); assay: mass photometry
Chain of RPA (P27694 whole entry, chain 1 of 3): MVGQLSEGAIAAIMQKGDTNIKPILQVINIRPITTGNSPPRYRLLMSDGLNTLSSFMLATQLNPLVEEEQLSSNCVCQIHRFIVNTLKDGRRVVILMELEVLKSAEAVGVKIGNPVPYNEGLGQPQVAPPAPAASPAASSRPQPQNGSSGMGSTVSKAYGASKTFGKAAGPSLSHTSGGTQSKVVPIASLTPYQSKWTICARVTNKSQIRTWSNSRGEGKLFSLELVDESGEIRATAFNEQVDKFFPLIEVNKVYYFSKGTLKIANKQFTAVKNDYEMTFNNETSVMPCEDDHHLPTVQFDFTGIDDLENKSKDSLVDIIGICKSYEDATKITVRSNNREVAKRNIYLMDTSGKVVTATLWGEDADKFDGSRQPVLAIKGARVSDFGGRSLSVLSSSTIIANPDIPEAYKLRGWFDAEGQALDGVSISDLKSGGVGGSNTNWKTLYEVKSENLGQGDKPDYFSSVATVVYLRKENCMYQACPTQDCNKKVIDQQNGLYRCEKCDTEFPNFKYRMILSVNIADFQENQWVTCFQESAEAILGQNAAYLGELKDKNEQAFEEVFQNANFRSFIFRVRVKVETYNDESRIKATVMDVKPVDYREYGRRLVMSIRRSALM
Chain of RPA (P15927 whole entry, chain 2 of 3): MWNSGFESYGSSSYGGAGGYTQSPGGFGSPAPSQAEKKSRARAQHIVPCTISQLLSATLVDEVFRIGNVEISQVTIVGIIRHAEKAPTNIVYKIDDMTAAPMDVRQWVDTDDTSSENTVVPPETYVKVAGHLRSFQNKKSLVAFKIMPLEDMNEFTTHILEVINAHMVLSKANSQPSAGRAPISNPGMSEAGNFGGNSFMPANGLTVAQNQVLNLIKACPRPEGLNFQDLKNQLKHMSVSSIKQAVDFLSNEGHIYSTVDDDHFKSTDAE
Chain of RPA (P35244 whole entry, chain 3 of 3): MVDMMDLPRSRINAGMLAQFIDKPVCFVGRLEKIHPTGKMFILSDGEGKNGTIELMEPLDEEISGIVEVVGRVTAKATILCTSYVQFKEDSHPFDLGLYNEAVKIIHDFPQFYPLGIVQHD

RAD52 wild type;RPA = RAD52 wild type;RPA (human;human?, UniProt P43351;P27694;P15927;P35244 1-418;1-616;1-270;1-121, |); assay: mass photometry
Chain of RAD52 wild type;RPA (P27694 whole entry, chain 2 of 3): as the sequence (P27694 whole entry, chain 1 of 3) above
Chain of RAD52 wild type;RPA (P15927 whole entry, chain 3 of 3): as the sequence (P15927 whole entry, chain 2 of 3) above
Chain of RAD52 wild type;RPA (P35244 whole entry, chain 4 of 3): as the sequence (P35244 whole entry, chain 3 of 3) above

RAD52 wild type [2] = target: T4, RAD52 wild type; assay: P1 nuclease footprinting
RAD52 wild type [3] = target: T4, RAD52 wild type; assay: P1 nuclease footprinting; remark: listed apart in the source

B1: 6xHis-tagged human RAD52 protein (wild type) (natural protein)
chain: T2 sequence with A152K, A153R
Mass photometry
  stoichiometry N: 10

B2: heterologous fork, 30 nt gap (#6/#2/#3/#4) (mixed)
DNA 1: GGTATATTCAACAGTTCAACGACGAATGTTTTTTTTTTTTTTTTTTTTTTTTTTTTTTCTTTTGAGGCAGGCATGGTAGC
DNA 2: GCTACCATGCCTGCCTCAAAAGTTCGTAATATGCTACACACTGGAGTACCGGCATTCGTCGTTGAACTGTTGAATATACC
DNA 3: GGTACTCCAGTGTGTAGCATATTACGAACTTTTGAGGCAGGCATGGTAGC
DNA 4: GCTACCATGCCTGCCTCAAAAG
SMARCAL1
  binding result: binds
RAD52 IBD
  binding result: binds
RAD52 wild type;SMARCAL1
  binding result: binds
RAD52 wild type [1]
  binding result: binds
RPA
  binding result: binds
RAD52 wild type;RPA
  binding result: binds

B3: heterologous fork P1 assay (#5/#2/#3/#4) (mixed)
DNA 1: GGTATATTCAACAGTTCAACGACGAATGTTGTGCATAACGTCGCTCCGTAGCTATACGCTTTTGAGGCAGGCATGGTAGC
DNA 2: B2 DNA 2
DNA 3: B2 DNA 3
DNA 4: GCTACCATGCCTGCCTCAAAAG
RAD52 wild type [2]
  binding result: binds

B4: homologous fork, 30 nt leading gap (#1/#2/#3/#4) (mixed)
DNA 1: GGTATATTCAACAGTTCAACGACGAATGTTGGTACTCCAGTGTGTAGCATATTACGAACTTTTGAGGCAGGCATGGTAGC
DNA 2: B2 DNA 2
DNA 3: B2 DNA 3
DNA 4: GCTACCATGCCTGCCTCAAAAG
RAD52 wild type [3]
  binding result: binds
